Data reported in patent publication US20050229275A1.
One block for each molecule: values may come before it.

Columns and labels:
murine mAbGA733 [1] = assay: competition ELISA, free GA733 against coated GA733
murine mAbGA733 [2] = assay: competition ELISA: free GA733 (1-100 nM) varied, constant murine mAbGA733 (0.063 nM), plates coated with GA733
[3] = target: plant produced CO17-1A of Example 9; assay: competition ELISA: free GA733 (1-100 nM) varied, constant plant CO17 (1/500 dilution; protein A purified and ammonium sulfate fractionated preparations alike), plates coated with GA733
[4] = target: colorectal cancer-associated antigen (Ag) GA733-2 (UniProt P16422); assay: ELISA, leaf extract on plates coated with Ag GA733-2, anti-mouse IgG peroxidase (whole molecule)
[5] = target: colorectal cancer-associated antigen (Ag) GA733-2 (UniProt P16422); assay: ELISA, N. benthamiana leaf extract on plates coated with Ag GA733-2, anti-mouse IgG peroxidase (whole molecule or Fc specific)

fold higher antigen concentration for 50% inhibition, against plant expressed CO17-1A (murine mAbGA733 [1]): 5 fold | IC50 (murine mAbGA733 [2]): 35 nM | IC50 [3]: 6.3 nM
Molecule: colorectal cancer-associated antigen (Ag) GA733-2 (from UniProt P16422 24-265)

fold OD490 nm over controls (NI, HC, LC) [4]: 2 to 3 fold
B1: plant-produced rAB CO17-1A expressed from AlMV vectors A3a17-1ALC and A3b17-1AHC in Rep plants (antibody, INN chains, looked up, V domains shown)
VH: QVQLQQSGAELVRPGTSVKVSCKASGYAFTNYLIEWVKQRPGQGLEWIGVINPGSGGTNYNEKFKGKATLTADKSSSTAYMQLSSLTSDDSAVYFCARDGPWFAYWGQGTLVTVSA
VL: NIVMTQSPKSMSMSVGERVTLTCKASENVVTYVSWYQQKPEQSPKLLIYGASNRYTGVPDRFTGSGSATDFTLTISSVQAEDLADYHCGQGYSYPYTFGGGTKLEIK
modifications: plant-produced

fold O.D.490 over controls (NI, HC, LC) [5]: 2 to 3 fold
B2: plant-produced rAb CO17-1A expressed from TMV vectors 30B-17HCK and 30B-17LC in Nicotiana benthamiana (antibody, INN chains, looked up, V domains shown, part only)
VH: QVQLQQSGAELVRPGTSVKVSCKASGYAFTNYLIEWVKQRPGQGLEWIGVINPGSGGTNYNEKFKGKATLTADKSSSTAYMQLSSLTSDDSAVYFCARDGPWFAYWGQGTLVTVSA
VL: NIVMTQSPKSMSMSVGERVTLTCKASENVVTYVSWYQQKPEQSPKLLIYGASNRYTGVPDRFTGSGSATDFTLTISSVQAEDLADYHCGQGYSYPYTFGGGTKLEIK
modifications: plant-produced, His tag
